Source: patent US20240174763A1 (NOVOPROTEIN SCIENTIFIC, published 2024)

Key:
[1] = target: T1, recombinant monkey CD73 protein (monkey, UniProt A0A2K5V5U7 27-549); assay: ELISA, plate coated with recombinant monkey CD73 at 3 µg/mL
T1 construct: Monkey species not further named for the recombinant protein (the cell line is called cynoCD73)
T1 sequence: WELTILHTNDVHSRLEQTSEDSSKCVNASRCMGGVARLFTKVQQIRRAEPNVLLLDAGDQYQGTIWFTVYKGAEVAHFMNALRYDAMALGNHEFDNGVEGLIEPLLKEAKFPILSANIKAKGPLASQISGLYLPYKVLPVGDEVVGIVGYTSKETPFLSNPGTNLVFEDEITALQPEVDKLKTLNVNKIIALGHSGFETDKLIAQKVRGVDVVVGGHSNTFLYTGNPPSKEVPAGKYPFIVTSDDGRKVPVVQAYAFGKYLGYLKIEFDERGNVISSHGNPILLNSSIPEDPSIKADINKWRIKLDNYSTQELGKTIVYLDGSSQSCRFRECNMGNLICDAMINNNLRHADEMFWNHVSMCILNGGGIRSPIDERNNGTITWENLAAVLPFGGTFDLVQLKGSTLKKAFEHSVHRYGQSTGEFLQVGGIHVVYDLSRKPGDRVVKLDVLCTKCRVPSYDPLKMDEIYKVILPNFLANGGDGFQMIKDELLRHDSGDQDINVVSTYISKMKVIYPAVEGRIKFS
Method: (§1) The recombinant monkey CD73 protein was packaged in plates according to a 3 μg/mL and a gradient diluted CQ137 was added.

[2] = target: T1, recombinant monkey CD73 protein; assay: ELISA, recombinant monkey CD73 coated at 3 ug/mL
Method: as §1

[3] = target: T2, human CD73 on SK-OV-3 cells (human ovarian adenocarcinoma cells) (human, UniProt P21589 27-549); assay: flow cytometry on SK-OV-3 cells
T2 construct: whole, on cells; also called human CD73 positive cells
T2 sequence (looked up): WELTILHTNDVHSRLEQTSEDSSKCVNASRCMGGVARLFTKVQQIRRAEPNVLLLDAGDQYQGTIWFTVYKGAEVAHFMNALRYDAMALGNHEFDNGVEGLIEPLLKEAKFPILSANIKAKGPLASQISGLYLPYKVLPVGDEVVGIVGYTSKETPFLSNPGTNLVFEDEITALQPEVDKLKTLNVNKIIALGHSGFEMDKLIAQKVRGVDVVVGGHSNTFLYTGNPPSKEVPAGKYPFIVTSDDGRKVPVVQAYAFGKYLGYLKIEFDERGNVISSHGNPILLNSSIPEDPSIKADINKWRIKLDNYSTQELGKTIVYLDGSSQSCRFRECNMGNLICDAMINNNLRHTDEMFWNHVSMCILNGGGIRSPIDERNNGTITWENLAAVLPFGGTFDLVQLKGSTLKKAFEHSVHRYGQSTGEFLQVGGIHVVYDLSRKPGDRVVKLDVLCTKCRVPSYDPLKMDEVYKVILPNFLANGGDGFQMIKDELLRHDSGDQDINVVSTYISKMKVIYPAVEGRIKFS
Method: 4×10⁵ cells SK-OV-3 were taken, triple gradient (0.009-20 μg/ml) dilution of CQ137 protein was added, incubated for 1 h, washed three times with PBS, Anti-hFC-APC (purchased from Jackson immunology) was added, and detected by flow cytometry.

[4] = target: T3, monkey CD73 on CHOK1-cynoCD73 cells (monkey, UniProt A0A2K5V5U7 27-549, GPI anchor at the C-terminus of the mature chain (paragraph 3 says CD73 is GPI-anchored). The propeptide 550-574 is removed.); assay: flow cytometry on CHOK1-cynoCD73 cells
T3 construct: also called CHOK1-cyno73 cells; monkey CD73 positive cells
T3 sequence: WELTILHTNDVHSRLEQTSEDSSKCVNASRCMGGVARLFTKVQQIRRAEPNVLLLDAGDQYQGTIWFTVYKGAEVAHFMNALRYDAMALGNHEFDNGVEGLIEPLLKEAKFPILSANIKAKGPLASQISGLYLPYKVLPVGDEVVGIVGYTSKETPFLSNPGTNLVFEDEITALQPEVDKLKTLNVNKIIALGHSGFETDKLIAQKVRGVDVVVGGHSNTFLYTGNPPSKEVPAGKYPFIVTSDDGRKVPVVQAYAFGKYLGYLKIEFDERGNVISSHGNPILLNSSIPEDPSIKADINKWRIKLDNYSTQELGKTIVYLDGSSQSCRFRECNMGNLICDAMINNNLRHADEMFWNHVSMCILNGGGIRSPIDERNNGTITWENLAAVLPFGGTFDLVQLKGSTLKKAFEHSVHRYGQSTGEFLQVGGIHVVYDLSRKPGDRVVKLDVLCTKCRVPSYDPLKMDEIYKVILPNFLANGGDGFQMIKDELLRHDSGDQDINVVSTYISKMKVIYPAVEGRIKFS
Method: The full length of monkey CD73 was constructed on a eukaryotic expression vector containing NEO resistance, CHO-K1 cells were transfected, G418 was used for screening to obtain a CHOK1-cynoCD73 cell strain. 4×10⁵ CHOK1-cynoCD73 cells were taken and a gradient diluted CQ137 protein was added, after incubation was performed for 1 h, the cells were washed with PBS for three times, […] (purchased from Jackson Immunology) was added, and detected by flow cytometry.

[5] = target: T4, recombinant human CD73 protein (human, UniProt P21589 27-547, limits assumed); assay: Biacore (SPR), CQ137 immobilised, CD73 protein 2.5 nM-40 nM
T4 construct: Bought recombinant protein; the assays only say recombinant human CD73; also called rhCD73; recombinant hCD73 protein
T4 sequence (looked up): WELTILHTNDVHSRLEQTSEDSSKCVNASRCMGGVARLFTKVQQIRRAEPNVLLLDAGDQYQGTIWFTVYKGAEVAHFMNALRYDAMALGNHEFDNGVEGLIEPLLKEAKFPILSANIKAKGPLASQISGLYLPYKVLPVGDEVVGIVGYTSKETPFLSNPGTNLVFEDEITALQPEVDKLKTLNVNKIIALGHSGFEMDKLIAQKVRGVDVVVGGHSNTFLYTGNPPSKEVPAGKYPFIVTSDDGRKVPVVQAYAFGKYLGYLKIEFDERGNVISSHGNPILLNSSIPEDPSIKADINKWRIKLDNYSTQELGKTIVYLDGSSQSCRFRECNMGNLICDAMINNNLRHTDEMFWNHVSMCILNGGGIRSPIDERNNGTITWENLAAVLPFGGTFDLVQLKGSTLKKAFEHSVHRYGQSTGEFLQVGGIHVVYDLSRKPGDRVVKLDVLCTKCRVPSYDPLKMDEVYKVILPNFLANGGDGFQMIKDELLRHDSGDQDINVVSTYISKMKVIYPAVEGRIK
Method: The affinity of CQ137 to recombinant hCD73 protein was determined by Biacore, CQ137 was cured.

[6] = target: T3, monkey CD73 on CHOK1-cynoCD73 cells; assay: cell-based or functional assay
[7] = target: T2, human CD73 on SK-OV-3 cells (human …); assay: cell-based or functional assay

- EC50 [1]: 217 ng/mL
- EC50 (read off the curve) [2]: ~200 ng/mL
- EC50 [3]: 0.588 ng/mL
- EC50 [4]: 0.0999 ng/mL
- Kd [5]: 86.5 pM
- koff [5]: 6.04e-05 s⁻¹
- kon [5]: 698000 M⁻¹ s⁻¹
- IC50 of inhibition of CD73 enzyme activity on CHOK1-cynoCD73 cells [6]: 990 ng/mL
- IC50 of inhibition of CD73 enzyme activity on SK-OV-3 cells [7]: 371 ng/mL
B1: CQ137 antibody protein (human mouse chimeric anti-CD73 full-length antibody) (antibody, human IgG1, kappa, V domains shown)
VH: EVQLQQSGPELVKPGASVKISCKASGYSFTGYYIHWVKQSHVKSLEWIGRINPYNGATTYNQNFKDKASLTVDKSSSTAYMELHSLTSEDSAVYYCARFHYGAPDYWGQGTTLTVSS
VL: DILMTQSPSSMYASLGERVTITCKASQDINTYLTWFQQKPGKSPKTLIYRANILVDGVPSRFSGSGSGQDYSLTISSLEFEDMGIYYCLQYDEFPLTFGAGTKLELKR
